The target in one assay is T1, CD3 on (CD3+) T cells (human, UniProt P07766 23-207; P09693 23-182; P04234 22-171; P20963 22-164).
T1 construct: whole, on cells; also called CD3 protein multi-subunit complex
Briefly: flow cytometry; 10 µg/mL scFv on 50,000 CD3+ T cells; anti-FLAG FITC detection. (A flow cytometer gives signals particle by particle.)

In assay [1] the target is T2, rhBCMA-Fc Chimera (R&D Systems 193-BC-050) (human, Disulfide-linked homodimer (the 25th table, row 5); one copy of the chain is given.).
T2 construct: Disulfide-linked dimer, bought; also called immobilized BCMA
Briefly: BLI (Octet) scouting; rhBCMA-Fc captured on AHC sensor; analyte 100 nM; 1:1 local fit.

The target in assay [2] is T3, Human CD3ε&CD3δ heterodimeric Fc Chimera (ACRO Biosystems CDD-H52W0) (human, UniProt P07766 22-126, Disulfide-linked heterodimer through the Fc parts that are left off.).
T3 construct: Disulfide-linked heterodimer, bought; also called rhCD3ε/δ-Fc; rhCD3ε/CD3δ-Fc
Nature of the assay: BLI (Octet) scouting; rhCD3ε/δ-Fc captured on AHC sensor; analyte 2000 nM; 1:1 local fit. A general note: Biolayer interferometry detects binding as a change in optical thickness at a sensor tip.

The target in assay [3] is T2, rhBCMA-Fc Chimera (R&D Systems …). Briefly: BLI full kinetics; rhBCMA-Fc captured on AHC sensor; analyte 1.56-50 nM; bivalent (avidity).
Assay [4] deals with T3, Human CD3ε&CD3δ heterodimeric Fc …. Nature of the assay: BLI full kinetics; rhCD3ε/δ-Fc captured on AHC sensor; analyte 15.6-125 nM; monovalent (affinity).

The text below walks through data of patent US20240344030A1 (CARTESIAN THERAPEUTICS, published 2024).

Changes are numbered by the printed parent chain.

T2 sequence (chain, as listed by the source mutant limits assumed): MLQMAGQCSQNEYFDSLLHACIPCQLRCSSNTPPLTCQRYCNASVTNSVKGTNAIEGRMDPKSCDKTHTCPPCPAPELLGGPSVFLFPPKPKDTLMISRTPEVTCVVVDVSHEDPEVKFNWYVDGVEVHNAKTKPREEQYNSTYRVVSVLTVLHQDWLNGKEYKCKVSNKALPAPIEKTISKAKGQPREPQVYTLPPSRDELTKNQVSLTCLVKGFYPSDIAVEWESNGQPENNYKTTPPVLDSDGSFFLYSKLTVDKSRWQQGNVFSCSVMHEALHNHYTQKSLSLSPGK
T1 sequence (P07766 23-207, form in doubt, chain 1 of 4): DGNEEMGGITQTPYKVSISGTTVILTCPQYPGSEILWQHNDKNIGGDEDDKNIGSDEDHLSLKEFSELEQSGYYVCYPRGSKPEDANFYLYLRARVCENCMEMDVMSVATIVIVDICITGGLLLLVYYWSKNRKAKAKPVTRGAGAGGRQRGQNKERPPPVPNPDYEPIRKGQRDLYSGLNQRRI
T1 sequence (P09693 23-182, form in doubt, chain 2 of 4): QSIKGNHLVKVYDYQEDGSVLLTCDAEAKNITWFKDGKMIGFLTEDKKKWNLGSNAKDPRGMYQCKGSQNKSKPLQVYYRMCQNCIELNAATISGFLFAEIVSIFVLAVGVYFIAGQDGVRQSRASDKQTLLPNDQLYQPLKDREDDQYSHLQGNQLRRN
T1 sequence (P04234 22-171, form in doubt, chain 3 of 4): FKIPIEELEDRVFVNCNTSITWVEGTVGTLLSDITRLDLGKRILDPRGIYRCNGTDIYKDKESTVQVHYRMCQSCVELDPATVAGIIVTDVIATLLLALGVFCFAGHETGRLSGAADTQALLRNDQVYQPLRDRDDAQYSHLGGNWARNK
T1 sequence (P20963 22-164, form in doubt, chain 4 of 4): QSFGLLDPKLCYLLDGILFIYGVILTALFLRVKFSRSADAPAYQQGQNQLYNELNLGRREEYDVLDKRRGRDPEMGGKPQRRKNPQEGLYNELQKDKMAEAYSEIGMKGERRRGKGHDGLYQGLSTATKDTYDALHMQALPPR
T3 sequence (P07766 22-126 limits assumed, stated change not applied, chain 1 of 2): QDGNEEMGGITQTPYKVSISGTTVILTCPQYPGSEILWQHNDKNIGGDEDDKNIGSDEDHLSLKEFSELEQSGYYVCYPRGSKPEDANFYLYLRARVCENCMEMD
T3 sequence (delta, as listed by the source mutant limits assumed, chain 2 of 2): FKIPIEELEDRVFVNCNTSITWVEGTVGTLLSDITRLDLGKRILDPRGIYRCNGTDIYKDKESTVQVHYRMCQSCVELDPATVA

B1: Vulcanodon-C1 anti-CD3 scFv (SEQ ID NO: 7), FLAG and His-tagged version (scFv)
scFv: QVQLQQSGAELARPGASVKMSCKTSGYTFTGYYMHWVKQRPGQGLEWIGYINPSRGYTNYNQKFKDKATLTTDKSSSTAYMQLSSLTSEDSAVYYCARYYDDHYSLDYWGQGTTLTVSSGGGGSGGGGSGGGGSGGGGSQIVLTQSPAIMSASPGEKVTMTCRASQSISSYLNWYQQKSGTSPKRWIYDTSKVASGVPYRFSGSGSGTSYSLTISSMEAEDAATYYCQQWSSNPLTFGAGTKLELK
notes: also called Var CDR1; not shown: FLAG and His tags
For the molecule B1, the “CD3 Binding (increase in MFI)” value with CD3 on (CD3+) T cells was approximately 0 MFI.

B2: Vulcanodon-3 anti-CD3 scFv (SEQ ID NO: 4), FLAG and His-tagged version (scFv)
scFv: QVQLVQSGAEVKKLGASVKVSCKASGYTFTRYTMHWVKQAPGQGLEWIGYINPSRGYTNYNQKFQGRVTMTRDTSISTAYMELSRLRSDDTAVYYCARYYDDHYSLDYWGQGTLVTVSSGGGGSGGGGSGGGGSGGGGSDIQMTQSPSSLSASVGDRVTITCRASSSVSYMNWYQQKSGTSPKRWIYDTSKVASGVPYRFSGSGSGTDFTLTISSLQPEDFATYYCQQWSSNPLTFGAGTKLEIK
notes: also called Var 3; not shown: FLAG and His tags
Consider B2, for which the “CD3 Binding (increase in MFI)” value with CD3 on (CD3+) T cells turned out to be 24 MFI.

B3: bispecific antibody of SEQ ID NO: 138 (with a C-terminal Myc-Flag tag of SEQ ID NO: 141) (bispecific antibody)
chain: DIVLTQSPASLAVSPGQRATISCRASESVSFLGINLIHWYQQKPGQPPKLLIYLASNLETGVPARFSGSGSGTDFTLTISSVEPEDTANYYCLQSRTLPRTFGQGTKVEIKGSTSGSGKPGSGEGSTKGQIQLVQSGPELKKPGGSVKISCKASGYTFTSYSINWVRQAPGKGLEWVGWINTETREPAYAQGFTGRFTFSADTSKSMAYLQINSLRAEDTAVYYCALDYLYSLDFWGQGTLVTVSSGGGGSQVQLVQSGAEVKKPGASVKVSCKASGYTFTRYTMHWVRQAPGQGLEWIGYINPSKGYTNYNQKFKGRVTMTADKSTSTAYMELSSLRSEDTAVYYCARYYDDHYSLDYWGQGTLVTVSSGGGGSGGGGSGGGGSGGGGSEIVMTQSPATLSLSPGERVTLSCRASSSVSYMNWYQQKSGTSPKRWIYDTSKVASGVPYRFSGSGSGTDFTLTISSLQAEDEATYYCQQWSSNPLTFGQGTKLEIKSSGGSGGSGGSGGSGGSGGSGGSGGSGGSGSDIVLTQSPASLAVSPGQRATISCRASESVSFLGINLIHWYQQKPGQPPKLLIYLASNLETGVPARFSGSGSGTDFTLTISSVEPEDTANYYCLQSRTLPRTFGQGTKVEIKGSTSGSGKPGSGEGSTKGQIQLVQSGPELKKPGGSVKISCKASGYTFTSYSINWVRQAPGKGLEWVGWINTETREPAYAQGFTGRFTFSADTSKSMAYLQINSLRAEDTAVYYCALDYLYSLDFWGQGTLVTVSSGGSLEQKLISEEDLAANDILDYKDDDDKV
notes: Single chain: anti-BCMA scFv, anti-CD3 scFv, anti-BCMA scFv; also called DC10xP15-MycDDK; DC10xP15
The term koff denotes a measure of how fast the partners let go of each other. A high value points to a short-lived complex. A word on the kon: it is a measure of how fast the partners come together. Higher therefore signals fast association. Turning to B3, the Kd in assay [1] is 0.116 nM; in assay [2], 9.76 nM; in assay [3], less than 1 pM; in assay [4], 3.02 nM. Moreover, the koff was less than 1e-07 s⁻¹ in assay [3] and 0.00199 s⁻¹ in assay [4]. For the same molecule, the values for the on-rate constant (kon) in assay [3] and in assay [4] were 226000 M⁻¹ s⁻¹ and 660000 M⁻¹ s⁻¹, respectively.

B4: Vulcanodon-1 anti-CD3 scFv (SEQ ID NO: 2), FLAG and His-tagged version (scFv)
scFv: QVQLVQSGAEVKKPGASVKVSCKASGYTFTRYTMHWVRQAPGQGLEWIGYINPSKGYTNYNQKFKGRVTMTADKSTSTAYMELSSLRSEDTAVYYCARYYDDHYSLDYWGQGTLVTVSSGGGGSGGGGSGGGGSGGGGSEIVMTQSPATLSLSPGERVTLSCRASSSVSYMNWYQQKSGTSPKRWIYDTSKVASGVPYRFSGSGSGTDFTLTISSLQAEDEATYYCQQWSSNPLTFGQGTKLEIK
notes: also called Var 1; not shown: FLAG and His tags
Take B4: the “CD3 Binding (increase in MFI)” value with CD3 on (CD3+) T cells stood at 20 MFI.

B5: Vulcanodon-2 anti-CD3 scFv (SEQ ID NO: 3), FLAG and His-tagged version (scFv)
scFv: B4 scFv with K55R, L114T, Q238A
notes: also called Var 2; not shown: FLAG and His tags
As for B5, in the assay with CD3 on (CD3+) T cells, the “CD3 Binding (increase in MFI)” value is 24 MFI.

B6: Vulcanodon-4 anti-CD3 scFv (SEQ ID NO: 5), FLAG and His-tagged version (scFv)
scFv: B4 scFv with R38K, A40R, E140Q, M143L, T149I, L150M, L152A, R157K, L160M, S161T
notes: also called Var 4; not shown: FLAG and His tags
Take B6: the “CD3 Binding (increase in MFI)” value with CD3 on (CD3+) T cells came out at 27 MFI.

B7: Vulcanodon-C2 anti-CD3 scFv (SEQ ID NO: 8), FLAG and His-tagged version (scFv)
scFv: QVQLQQSGAELARPGASVKMSCKTSGYTFTRYTMHWVKQRPGQGLEWMGIINPSGGSTSYAQKFKDKATLTTDKSSSTAYMQLSSLTSEDSAVYYCARYYDDHYSLDYWGQGTTLTVSSGGGGSGGGGSGGGGSGGGGSQIVLTQSPAIMSASPGEKVTMTCRASSSVSYMNWYQQKSGQAPRLLIYGASTRATGIPYRFSGSGSGTSYSLTISSMEAEDAATYYCQQWSSNPLTFGAGTKLELK
notes: also called Var CDR2; not shown: FLAG and His tags
As to B7, the “CD3 Binding (increase in MFI)” value with CD3 on (CD3+) T cells is approximately 0 MFI.
